Test results: patent publication US9745607B2, “Methods of producing 6-carbon chemicals using 2,6-diaminopimelate as precursor to 2-aminopimelate” (INVISTA North America S.á r.l., priority 2014, dated 2017)

B1: SEQ ID NO 9: Pseudomonas aeruginosa ω-transaminase, N-terminal HIS tagged (protein, listed as Pseudomonas aeruginosa)
chain: MNARLHATSPLGDADLVRADQAHYMHGYHVFDDHRVNGSLNIAAGDGAYIYDTAGNRYLDAVGGMWCTNIGLGREEMARTVAEQTRLLAYSNPFCDMANPRAIELCRKLAELAPGDLDHVFLTTGGSTAVDTAIRLMHYYQNCRGKRAKKHVITRINAYHGSTFLGMSLGGKSADRPAEFDFLDERIHHLACPYYYRAPEGLGEAEFLDGLVDEFERKILELGADRVGAFISEPVFGSGGVIVPPAGYHRRMWELCQRYDVLYISDEVVTSFGRLGHFFASQAVFGVQPDIILTAKGLTSGYQPLGACIFSRRIWEVIAEPDKGRCFSHGFTYSGHPVACAAALKNIEIIEREGLLAHADEVGRYFEERLQSLRDLPIVGDVRGMRFMACVEFVADKASKALFPESLNIGEWVHLRAQKRGLLVRPIVHLNVMSPPLILTREQVDTVVRVLRESIEETVEDLVRAGHR
modifications: N-terminal His tag
notes: Pseudomonas aeruginosa ω-transaminase, N-terminal HIS tagged
B2: SEQ ID NO 7: Segniliparus rotundus carboxylate reductase, N-terminal HIS tagged (protein, listed as Segniliparus rotundus)
chain: MTQSHTQGPQASAAHSRLARRAAELLATDPQAAATLPDPEVVRQATRPGLRLAERVDAILSGYADRPALGQRSFQTVKDPITGRSSVELLPTFDTITYRELRERATAIASDLAHHPQAPAKPGDFLASIGFISVDYVAIDIAGVFAGLTAVPLQTGATLATLTAITAETAPTLFAASIEHLPTAVDAVLATPSVRRLLVFDYRAGSDEDREAVEAAKRKIADAGSSVLVDVLDEVIARGKSAPKAPLPPATDAGDDSLSLLIYTSGSTGTPKGAMYPERNVAHFWGGVWAAAFDEDAAPPVPAINITFLPLSHVASRLSLMPTLARGGLMHFVAKSDLSTLFEDLKLARPTNLFLVPRVVEMLYQHYQSELDRRGVQDGTREAEAVKDDLRTGLLGGRILTAGFGSAPLSAELAGFIESLLQIHLVDGYGSTEAGPVWRDGYLVKPPVTDYKLIDVPELGYFSTDSPHPRGELAIKTQTILPGYYKRPETTAEVFDEDGFYLTGDVVAQIGPEQFAYVDRRKNVLKLSQGEFVTLAKLEAAYSSSPLVRQLFVYGSSERSYLLAVIVPTPDALKKFGVGEAAKAALGESLQKIARDEGLQSYEVPRDFIIETDPFTVENGLLSDARKSLRPKLKEHYGERLEAMYKELADGQANELRDIRRGVQQRPTLETVRRAAAAMLGASAAEIKPDAHFTDLGGDSLSALTFSNFLHDLFEVDVPVGVIVSAANTLGSVAEHIDAQLAGGRARPTFATVHGKGSTTIKASDLTLDKFIDEQTLEAAKHLPKPADPPRTVLLTGANGWLGRFLALEWLERLAPAGGKLITIVRGKDAAQAKARLDAAYESGDPKLAGHYQDLAATTLEVLAGDFSEPRLGLDEATWNRLADEVDFISHPGALVNHVLPYNQLFGPNVAGVAEIIKLAITTRIKPVTYLSTVAVAAGVEPSALDEDGDIRTVSAERSVDEGYANGYGNSKWGGEVLLREAHDRTGLPVRVFRSDMILAHQKYTGQVNATDQFTRLVQSLLATGLAPKSFYELDAQGNRQRAHYDGIPVDFTAESITTLGGDGLEGYRSYNVFNPHRDGVGLDEFVDWLIEAGHPITRIDDYDQWLSRFETSLRGLPESKRQASVLPLLHAFARPGPAVDGSPFRNTVFRTDVQKAKIGAEHDIPHLGKALVLKYADDIKQLGLL
modifications: N-terminal His tag
notes: Segniliparus rotundus carboxylate reductase, N-terminal HIS tagged
B3: SEQ ID NO 10: Pseudomonas syringae ω-transaminase, N-terminal HIS tagged (protein, listed as Pseudomonas syringae)
chain: MSANNPQTLEWQALSSEHHLAPFSDYKQLKEKGPRIITRAEGVYLWDSEGNKILDGMSGLWCVAIGYGREELADAASKQMRELPYYNLFFQTAHPPVLELAKAISDIAPEGMNHVFFTGSGSEGNDTMLRMVRHYWALKGQPNKKTIISRVNGYHGSTVAGASLGGMTYMHEQGDLPIPGVVHIPQPYWFGEGGDMTPDEFGIWAAEQLEKKILELGVENVGAFIAEPIQGAGGVIVPPDSYWPKIKEILSRYDILFAADEVICGFGRTSEWFGSDFYGLRPDMMTIAKGLTSGYVPMGGLIVRDEIVAVLNEGGDFNHGFTYSGHPVAAAVALENIRILREEKIVERVRSETAPYLQKRLRELSDHPLVGEVRGVGLLGAIELVKDKTTRERYTDKGAGMICRTFCFDNGLIMRAVGDTMIIAPPLVISFAQIDELVEKARTCLDLTLAVLQG
modifications: N-terminal His tag
notes: Pseudomonas syringae ω-transaminase, N-terminal HIS tagged
B4: SEQ ID NO 8: Chromobacterium violaceum ω-transaminase, N-terminal HIS tagged (protein, listed as Chromobacterium violaceum)
chain: MQKQRTTSQWRELDAAHHLHPFTDTASLNQAGARVMTRGEGVYLWDSEGNKIIDGMAGLWCVNVGYGRKDFAEAARRQMEELPFYNTFFKTTHPAVVELSSLLAEVTPAGFDRVFYTNSGSESVDTMIRMVRRYWDVQGKPEKKTLIGRWNGYHGSTIGGASLGGMKYMHEQGDLPIPGMAHIEQPWWYKHGKDMTPDEFGVVAARWLEEKILEIGADKVAAFVGEPIQGAGGVIVPPATYWPEIERICRKYDVLLVADEVICGFGRTGEWFGHQHFGFQPDLFTAAKGLSSGYLPIGAVFVGKRVAEGLIAGGDFNHGFTYSGHPVCAAVAHANVAALRDEGIVQRVKDDIGPYMQKRWRETFSRFEHVDDVRGVGMVQAFTLVKNKAKRELFPDFGEIGTLCRDIFFRNNLIMRACGDHIVSAPPLVMTRAEVDEMLAVAERCLEEFEQTLKARGLA
modifications: N-terminal His tag
notes: Chromobacterium violaceum ω-transaminase, N-terminal HIS tagged
B5: SEQ ID NO 13: Vibrio fluvialis ω-transaminase, N-terminal HIS tagged (protein, listed as Vibrio fluvialis)
chain: MNKPQSWEARAETYSLYGFTDMPSLHQRGTVVVTHGEGPYIVDVNGRRYLDANSGLWNMVAGFDHKGLIDAAKAQYERFPGYHAFFGRMSDQTVMLSEKLVEVSPFDSGRVFYTNSGSEANDTMVKMLWFLHAAEGKPQKRKILTRWNAYHGVTAVSASMTGKPYNSVFGLPLPGFVHLTCPHYWRYGEEGETEEQFVARLARELEETIQREGADTIAGFFAEPVMGAGGVIPPAKGYFQAILPILRKYDIPVISDEVICGFGRTGNTWGCVTYDFTPDAIISSKNLTAGFFPMGAVILGPELSKRLETAIEAIEEFPHGFTASGHPVGCAIALKAIDVVMNEGLAENVRRLAPRFEERLKHIAERPNIGEYRGIGFMWALEAVKDKASKTPFDGNLSVSERIANTCTDLGLICRPLGQSVVLCPPFILTEAQMDEMFDKLEKALDKVFAEVA
modifications: N-terminal His tag
notes: Vibrio fluvialis ω-transaminase, N-terminal HIS tagged

Experiments:
Format in all cases: biochemical
[1] = ω-transaminase enzyme activity assay, reverse direction (6-aminohexanoate to adipate semialdehyde); details: cell free extract, 10 mM 6-aminohexanoate, 10 mM pyruvate, pH 7.5, 25° C., 24 h, RP-HPLC, against the empty vector control
Experimental: (§1) A nucleotide sequence encoding a His-tag was added to the genes from Chromobacterium violaceum, Pseudomonas aeruginosa, Pseudomonas syringae, Rhodobacter sphaeroides, and Vibrio Fluvialis encoding the ω-transaminases of SEQ ID NOs: 8, 9, 10, 11 and 13, respectively (see FIG. 20E and FIG. 20F) such that N-terminal HIS tagged ω-transaminases could be produced. Each of the resulting modified genes was cloned into a pET21a expression vector under control of the T7 promoter and each expression vector was transformed into a BL21[DE3] E. coli host. The resulting recombinant E. coli strains were cultivated at 37° C. in a 250 mL shake flask culture containing 50 mL LB media and antibiotic selection pressure, with shaking at 230 rpm. Each culture was induced overnight at 16° C. using 1 mM IPTG.
(§2) The pellet from each induced shake flask culture was harvested via centrifugation. Each pellet was resuspended and lysed via sonication. The cell debris was separated from the supernatant via centrifugation and the cell free extract was used immediately in enzyme activity assays.
Enzyme activity assays in the reverse direction (i.e., 6-aminohexanoate to adipate semialdehyde) were performed in a buffer composed of a final concentration of 50 mM HEPES buffer (pH=7.5), 10 mM 6-aminohexanoate, 10 mM pyruvate and 100 μM pyridoxyl 5′ phosphate. Each enzyme activity assay reaction was initiated by adding cell free extract of the ω-transaminase gene product or the empty vector control to the assay buffer containing the 6-aminohexanoate and incubated at 25° C. for 24 h, with shaking at 250 rpm. The formation of L-alanine from pyruvate was quantified via RP-HPLC.

[2] = ω-transaminase enzyme activity assay, forward direction (adipate semialdehyde to 6-aminohexanoate); details: cell free extract, 10 mM adipate semialdehyde, 10 mM L-alanine, pH 7.5, 25° C., 4 h, RP-HPLC, against the empty vector control
Experimental: as §1, §2
Enzyme activity in the forward direction (i.e., adipate semialdehyde to 6-aminohexanoate) was confirmed for the transaminases of SEQ ID NO 8, SEQ ID NO 9, SEQ ID NO 10, SEQ ID NO 11 and SEQ ID NO 13. Enzyme activity assays were performed in a buffer composed of a final concentration of 50 mM HEPES buffer (pH=7.5), 10 mM adipate semialdehyde, 10 mM L-alanine and 100 μM pyridoxyl 5′ phosphate. Each enzyme activity assay reaction was initiated by adding a cell free extract of the ω-transaminase gene product or the empty vector control to the assay buffer containing the adipate semialdehyde and incubated at 25° C. for 4 h, with shaking at 250 rpm. The formation of pyruvate was quantified via RP-HPLC.

[3] = carboxylate reductase enzyme activity assay (adipate semialdehyde to hexanedial); details: purified enzyme enhanced by the gene product of sfp, 2 mM adipate semialdehyde, pH 7.5, room temperature, 20 min, against the empty vector control
Experimental: The N-terminal His-tagged carboxylate reductase of SEQ ID NO 7 (see Example 2 and FIG. 20E) was assayed using adipate semialdehyde as substrate. The enzyme activity assay was performed in triplicate in a buffer composed of a final concentration of 50 mM HEPES buffer (pH=7.5), 2 mM adipate semialdehyde, 10 mM MgCl2, 1 mM ATP and 1 mM NADPH. The enzyme activity assay reaction was initiated by adding purified carboxylate reductase and phosphopantetheine transferase or the empty vector control to the assay buffer containing the adipate semialdehyde and then incubated at room temperature for 20 min. The consumption of NADPH was monitored by absorbance at 340 nm.

Molecule	ω-transaminase activity: acceptance of 6-aminohexanoate as substrate (formation of L-alanine from pyruvate) [1]	ω-transaminase activity: acceptance of adipate semialdehyde as substrate (formation of pyruvate from L-alanine) [2]	carboxylate reductase activity: acceptance of adipate semialdehyde as substrate (consumption of NADPH, absorbance at 340 nm) [3]
SEQ ID NO 11: Rhodobacter sphaeroides ω-transaminase, N-terminal HIS tagged	accepted 6-aminohexanote as substrate	accepted adipate semialdehyde as substrate	–
B1	–	accepted adipate semialdehyde as substrate	–
B2	–	–	accepted adipate semialdehyde as substrate
B3	accepted 6-aminohexanote as substrate	accepted adipate semialdehyde as substrate	–
B4	accepted 6-aminohexanote as substrate	accepted adipate semialdehyde as substrate	–
B5	accepted 6-aminohexanote as substrate	accepted adipate semialdehyde as substrate	–
